Source: PMC4661524 (Scientific Reports, 2015)
Substitutions are numbered along the chain they refer to. Numbers in names are those of the source. One block for each binder: values may come before it.

Key:
Details in all cases: both partners purified
[1] = biological target: T1, biotinylated HLA-DM ectodomain (human, UniProt P28067 27-233; P28068 19-218, biotin on the C-terminal avitag (BirA); which chain carries the avitag is not stated); assay: SPR; BIAcore, 37 C, pH 4.85; biotinylated DM on a streptavidin chip, DOv injected; 80 mM citrate-phosphate, 150 mM NaCl, 0.06% BSA, 0.05% P20; apparent KD from fitted equilibrium RU
T1 construct: HLA-DM alpha chain, human, ectodomain; HLA-DM beta chain, human, ectodomain; Alpha/beta heterodimer; The supplement says only that avitag and flag-tag stand at a C-terminus; they are written on the beta chain for want of a statement; A KT3-tag at the C-terminus of recombinant DM beta is named in the western blot methods (D1:p7); also called bio-DM; sDM-Avi

[2] = biological target: T1, biotinylated HLA-DM ectodomain; assay: SPR; BIAcore, 25 C, pH 7.2 (running buffer pH 7.16); biotinylated DM (120-130 RU) on a streptavidin chip, DOv injected; 80 mM citrate-phosphate, 150 mM NaCl, 0.06% BSA, 0.05% P20; apparent KD from fitted equilibrium RU (slow dissociation model)
[3] = biological target: T1, biotinylated HLA-DM ectodomain; assay: SPR; BIAcore, 25 C, pH 4.85; biotinylated DM on a streptavidin chip, DOv injected; 80 mM citrate-phosphate, 150 mM NaCl, 0.06% BSA, 0.05% P20; apparent KD from fitted equilibrium RU
[4] = biological target: T1, biotinylated HLA-DM ectodomain; assay: SPR; BIAcore, 25 C, pH 6.3 (running buffer pH 6.26); biotinylated DM on a streptavidin chip, untreated DOv injected; 80 mM citrate-phosphate, 150 mM NaCl, 0.06% BSA, 0.05% P20; apparent KD from fitted equilibrium RU
[5] = biological target: T1, biotinylated HLA-DM ectodomain; assay: SPR; BIAcore, 37 C, pH 6.3; biotinylated DM on a streptavidin chip, DOv injected; 80 mM citrate-phosphate, 150 mM NaCl, 0.06% BSA, 0.05% P20; apparent KD from fitted equilibrium RU
[6] = biological target: T1, biotinylated HLA-DM ectodomain; assay: SPR; BIAcore, 25 C, pH 6.3; biotinylated DM on a streptavidin chip; analyte: intact DOv SEC-purified after a pH 4.6 pulse (37 C, 8 min); apparent KD from fitted equilibrium RU
[7] = biological target: T1, biotinylated HLA-DM ectodomain; assay: SPR; BIAcore, 25 C, pH 5.5 (running buffer pH 5.49); biotinylated DM on a streptavidin chip, DOv injected; 80 mM citrate-phosphate, 150 mM NaCl, 0.06% BSA, 0.05% P20; apparent KD from fitted equilibrium RU
[8] = biological target: T2, soluble HLA-DM ectodomain (human, UniProt P28067 27-233; P28068 19-218); assay: BLI; Octet QK, 25 C as the table's head says, table row pH 7.2 (kinetic buffer 50 mM HEPES pH 7.4, 150 mM NaCl, 0.01% BSA, 0.002% Tween 20); biotinylated DOv on streptavidin biosensors, soluble DM 6.25-1600 nM; apparent KD from fitted equilibrium wavelength shifts
T2 construct: HLA-DM alpha chain, human, ectodomain; HLA-DM beta chain, human, ectodomain; The analyte of the BLI experiments, not biotinylated; also called sDM; soluble DM

[9] = biological target: T2, soluble HLA-DM ectodomain; assay: BLI; Octet QK, 25 C as the table's head says, pH 5.5 (50 mM citrate, 150 mM NaCl, 0.01% BSA, 0.002% Tween 20); biotinylated DOv on streptavidin biosensors, soluble DM 6.25-1600 nM; apparent KD from fitted equilibrium wavelength shifts
[10] = biological target: T2, soluble HLA-DM ectodomain; assay: BLI; Octet QK, 25 C as the table's head says, table row pH 4.85 (kinetic buffer 50 mM acetate pH 4.7, 150 mM NaCl, 0.01% BSA, 0.002% Tween 20); biotinylated DOv on streptavidin biosensors, soluble DM 6.25-1600 nM; apparent KD from fitted equilibrium wavelength shifts
[11] = biological target: T2, soluble HLA-DM ectodomain; assay: BLI; Octet QK, 25 C as the table's head says, pH 6.3 (50 mM MES, 150 mM NaCl, 0.01% BSA, 0.002% Tween 20); biotinylated DOv on streptavidin biosensors, soluble DM 6.25-1600 nM; apparent KD from fitted equilibrium wavelength shifts
[12] = biological target: T3, HLA-DM ectodomain of the DM-DOwt complex (human, UniProt P28067 27-233; P28068 19-218); assay: SEC; DM-DOwt ectodomains incubated at pH 4.6, 5.4 or 6.3 for the indicated times (4 h, 24 h) or not treated, separated by size exclusion chromatography; fractions western blotted with DO- or DM-specific antibodies
T3 construct: HLA-DM alpha chain, ectodomain; HLA-DM beta chain, ectodomain; For BLI the DM-DOwt complex was biotinylated; also called DM (in DM-DOwt); DM-DO ectodomains; source: recombinant, purified in complex with DOwt (double SEC-purified DM-DO ectodomains)

[13] = biological target: T4, biotinylated DM (soluble HLA-DM, SPR ligand) (human, UniProt P28067 27-233; P28068 19-218, biotin (chain and site not stated) | biotin (chain and site not stated)); assay: SPR; BIAcore; 120–130 RU biotinylated DM on a streptavidin chip, DOv injected (Kinject, 30 μl/min, 5 min); 80 mM citrate-phosphate, 150 mM NaCl, 0.06% BSA, 0.05% P20, pH 4.85, 5.49, 6.26, 7.16; 25 °C or 37 °C; single cycle mode at pH 4.85 with >4 h dissociation; apparent constants (slow dissociation model)
T4 construct: HLA-DM alpha chain, ectodomain; HLA-DM beta chain, ectodomain; captured on a streptavidin chip; also called immobilized DM; source: recombinant, purified
T4 sequence (P28067 27-233, chain 1 of 2): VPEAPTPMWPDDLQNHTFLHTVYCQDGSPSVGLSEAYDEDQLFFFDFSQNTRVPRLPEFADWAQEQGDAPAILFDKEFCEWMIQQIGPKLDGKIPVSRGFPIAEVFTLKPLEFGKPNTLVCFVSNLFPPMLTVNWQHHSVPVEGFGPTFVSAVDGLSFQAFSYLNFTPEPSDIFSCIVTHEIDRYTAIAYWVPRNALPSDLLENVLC
T4 sequence (P28068 19-218, chain 2 of 2): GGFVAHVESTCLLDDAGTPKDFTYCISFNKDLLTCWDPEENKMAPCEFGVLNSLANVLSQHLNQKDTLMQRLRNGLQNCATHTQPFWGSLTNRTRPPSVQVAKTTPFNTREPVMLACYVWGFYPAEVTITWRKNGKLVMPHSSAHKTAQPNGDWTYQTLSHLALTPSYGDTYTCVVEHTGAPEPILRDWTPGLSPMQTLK

T1 sequence (P28067 27-233, chain 1 of 2): as the sequence (P28067 27-233, chain 1 of 2) above
T1 sequence (P28068 19-218, chain 2 of 2): as the sequence (P28068 19-218, chain 2 of 2) above
T2 sequence (P28067 27-233, chain 1 of 2): as the sequence (P28067 27-233, chain 1 of 2) above
T2 sequence (P28068 19-218, chain 2 of 2): as the sequence (P28068 19-218, chain 2 of 2) above
T3 sequence (P28067 27-233, chain 1 of 2): as the sequence (P28067 27-233, chain 1 of 2) above
T3 sequence (P28068 19-218, chain 2 of 2): as the sequence (P28068 19-218, chain 2 of 2) above

Kd [1]: 240 nM
Kd [2]: 9.4 nM
Kd [3]: 148 nM
Kd [4]: 14.1 nM
Kd [5]: 12.6 nM
Kd [6]: 27.5 nM
Kd [7]: 21.9 nM
B1: stabilized HLA-DO variant ectodomain (alpha P11A) (domain or fragment, human)
MHC II alpha: TKADHMGSYGAAFYQSYGASGQFTHEFDEEQLFSVDLKKSEAVWRLPEFGDFARFDPQGGLAGIAAIKAHLDILVERSNRSRAINVPPRVTVLPKSRVELGQPNILICIVDNIFPPVINITWLRNGQTVTEGVAQTSFYSQPDHLFRKFHYLPFVPSAEDVYDCQVEHWGLDAPLLRHWELQVPIPPPDAME
MHC II beta: TDSPEDFVIQAKADCYFTNGTEKVQFVVRFIFNLEEYVRFDSDVGMFVALTKLGQPDAEQWNSRLDLLERSRQAVDGVCRHNYRLGAPFTVGRKVQPEVTVYPERTPLLHQHNLLHCSVTGFYPGDIKIKWFLNGQEERAGVMSTGPIRNGDWTFQTVVMLEMTPELGHVYTCLVDHSSLLSPVSVEWRAQSEYSWRK
notes: HLA-DO alpha chain, human, ectodomain; HLA-DO beta chain, human, ectodomain; Alpha/beta heterodimer, not biotinylated when used as SPR analyte; The avitag is said to stand at the C-terminus of recombinant DO beta (D1:p7); The 'sz' of the cell line's name may mean leucine zippers; In one experiment the intact fraction after a pH 4.6 pulse (37 C, 8 min, SEC 12-13 ml) was used; also called szDOv-Avi

Kd [8]: 11.3 nM
Kd [9]: 26.9 nM
Kd [10]: 233 nM
Kd [11]: 17 nM
B2: biotinylated stabilized HLA-DO variant ectodomain (alpha P11A) (domain or fragment, human)
MHC II alpha: B1 MHC II alpha
MHC II beta: B1 MHC II beta
modifications: biotin on the C-terminal avitag (BirA)
notes: HLA-DO alpha chain, human, ectodomain; HLA-DO beta chain, human, ectodomain; Same construct as Dm2, biotinylated and held on streptavidin biosensors in BLI; also called bio-DOv; biotinylated DOv

binding result [12]: binds
B3: wild type HLA-DO ectodomain (DOwt) of the DM-DOwt complex (complex, human)
MHC II alpha: B1 MHC II alpha with A11P
MHC II beta: B1 MHC II beta
notes: HLA-DO alpha chain, ectodomain; HLA-DO beta chain, ectodomain; For BLI the DM-DOwt complex was biotinylated; also called wild type DO; source: recombinant, purified in complex with DM (double SEC-purified DM-DO ectodomains)

fold increase of KD,app from pH 7.2 to pH 4.7 [13]: > 10 fold
B4: stabilized HLA-DO variant (DOv), ectodomain with αP11A (complex, human)
MHC II alpha: B1 MHC II alpha
MHC II beta: B1 MHC II beta
notes: HLA-DO alpha chain, ectodomain; HLA-DO beta chain, ectodomain; Also used after pH 4.6 pulses and SEC isolation of the intact portion (assay a3); also called soluble DOv; source: recombinant, expressed and purified alone
